Experiment: soluble on expression in E. coli; label from the status in PepcDB or PDB records
With “MSLSEYQDLSQQIELIATAEESEQTHLLGEMVENGLDEGSIALILEAFPVEQRVRLWRSLPLEMHIDVLTEMRAEVRISVINALSEIELKLTLAKLDNLSLIEWEDSLPDDIISEALSLINRDELELYDQANEFADDEIGHWADRKVYTLPFSISVRRAKVLLDKYHYDSPQYIYLINKAKKFRGLVSFSDVLQAEETTQLKNLRMEELVTLNAKQTLSDAVDALEHTTLPIVPVLSDDETLIGEIDWHFALSVQREMYEARLMAGTGMDEGDDLFAPVIKSEGHHHHHH” the “soluble on expression in E. coli” value was “soluble”. In the case of “MSLSGSITVPNYSDTNRVPGLYFALDNSKANTASVTRRVLILGQTIAGSGAPNVATLSAGYSDAVAKYGAASQCARMVSAYRAIDAQGEVWVLPLADDTSAQAATGKVTVSGTATSAGTLPLYVGDQLISVAVDTGDTAATVAANIATATAAVSGLPAGASAAEGVVTFTALNKGQSGNDILLGVALLGTAGGQAVPDGLTIALTQFSGGTADPTTLATVLALQGERVYDLIIHPYTDSGSLTALKIWLNDTAGRWSPMLQLYGHAITAYRGTYGAATSLGLAQNDQHATIMPIGDSPSDPLTWAAQIGARTAMSMRSNPALPITAVSLTVMPPTDVGRYSSEQRNSLLYDGLSTFTVDDSGTVNIERLVTTYQTNASGLPDNSYLDIETMLTAEICMQDMRSYLAGQYGGCILVADGTKISAGAKATTAKLIGKACASRYRWQTTQLWVQNADNFAANIVAENAGNGVVKLLMPYDFANQLRIIAGSVQFVKSEGHHHHHH”, the “soluble on expression in E. coli” value is reported as “soluble”. For “MSLSIPADIASLISDKYKSAFDNGNLKFIQTETTKTKDPKTSMPYLISHMPSLIEKPERGQTPEGEDPLGKPEEELTVIPEFGGADNKAYKLLLNKFPVIPGHTLLVTNEYQHQTDALTPTDLLTAYKLLCALDNEESDKRHMVFYNSGPASGSSLDHKHLQILQMPEKFVTFQDRLCNGKEHFLPTFNTEPLQDAKVSFAHFVLPMPESEETVDEDLLAMCYISILQRALTFFQDWLNENPELKKSYNLMLTKEWICVVPRSKAFSDEMKIGFNSTGYCGMILTKNDEVFSKITEKPELINDILLECGFPNTSGQKPNEYNYEGHHHHHH”, the “soluble on expression in E. coli” value was “soluble”. For “MSLSIYSVGRWICRSYFRLFFKVEVIGASRIPDEGGLLLCCNHFSNYDPPFVGSFFPRKVRFMAKEELFRFKPLQSLMMAVGAFPVRRGAGDKQALKVGLKLLKEGETLGIFPEGTRSKDGQIGKGLSGVGFFALRSDATVVPCAIVGKYRFFRKVRFVIGEPVPMEELKERKASAEEATEVIMKAIRKLHEQNQMSEGHHHHHH”, the “soluble on expression in E. coli” value was “soluble”. For “MSLSKEKEVLLNEEIRADEIRCVGDDGKVYGIISSDEALEIANRLGLDLVMIAADAKPPVCKIMDYGKFRYQQEKKQKEAKKKQKVIDIKEIKLSVKIAQNDINYKVKHALEFLEQGKHVRFRVFLKGREMATPEAGVALLEKIWTMIENEANRDKEPNFEGRYVNMLVTPKKAEGHHHHHH”, the “soluble on expression in E. coli” value was “soluble”. For “MSLSKHSHYKDKKKFYKKVEQFKEFQERISVHFQNEKLLYQAFTHSSYVNEHRKKPYEDNERLEFLGDAVLELTISRFLFAKYPAMSEGDLTKLRAAIVCEPSLVSLAHELSFGDLVLLGKGEEMTGGRKRPALLADVFEAFIGALYLDQGLEPVESFLKVYVFPKINDGAFSHVMDFKSQLQEYVQRDGKGSLEYKISNEKGPAHNREFEAIVSLKGEPLGVGNGRSKKEAEQHAAQEALAKLQKHHTKQEGGSHHHHHH”, the “soluble on expression in E. coli” value was “soluble”. With “MSLSKLPLLPTTVIGSYPRPKWLRESIRLHKAGKMSNEDLQEAFNDAVIAVFQDHYKAGVDVPTDGEVRRDEMVEFFAERIKGFKFYGPVRVWGTAYYRKPSVVSKIEYREPMLVDEFTFAKSVSYTDNLKITITGPYTIAEWSYNEYYRNKKDLVFDLAKAINQEIKNLVEAGAKIIQIDEPALHTRKEDVSWGVEAVNEAVKGVNAKLVMHICYGDYSFVAPYFNEIKVDQINFALKIYNYKPLELLKKYGFDKELGAGVVDVHNRKVETSEEVANDIRKILEYFPPEKVWINPDCGLKLLSRKIAYQKLVSMVEGTKVVREELKRKGYSVDEGHHHHHH” the “soluble on expression in E. coli” value was “not soluble”. With “MSLSKNKYLFKYLIVDRKKLDPSYTYKYDNIQWNHKIIAIGDIHGDVESLKLILRHSNLIDENDEWIAEDVMLVQVGDILDRGVFGTYIYDYLLKLQKDAIKKNSKVILIMGNHEQLNLCGAFHYVNESEVMLFFQNNRNNRLFSFTNKNGYYFKKLIRLPVIVKINNIIFTHGGISKHMSEYDINTINLKTRLQIENKCKMFQFEKYNYLSKEGVLWNNEISHQVKLQPKKTCKHLRNILKKYNAKGLVVGHTRQKSHEIQTYCNNSFFLIDTGMSLFMNNGQPYPNYLQIEKGKFKTVHLIVQEYNRKEGHHHHHH” the “soluble on expression in E. coli” value was “not soluble”. For “MSLSKPLFIFEMANNHMGNVEHGVALIRAIRESCQGFDFDFGFKLQYRNLDTFIHSSFKGRDDVKYVKRFEETRLQPEQMQKLVAEMKANGFKAICTPFDEESVDLIEAHGIEIIKIASCSFTDWPLLERIARSDKPVVASTAGARREDIDKVVSFMLHRGKDLTIMHCVAEYPTPDDHLHLARIKTLRQQYAGVRIGYSTHEDPDLMEPIMLAVAQGATVFEKHVGLPTDQYGINNYSANPEQVRRWLAAAARALAMLGDGEDDAVSETEQASLRSLRRGVFATRPVAAGEALTADNVSFAFPPVEGQLTANEWSKYVRYTAKTPIAADAPVMAADLEPVNEGHHHHHH”, the “soluble on expression in E. coli” value was “soluble”. With “MSLSLDESNTALAEEFDNWDLEFKLWELVDRLFRFRALFSNKAKTELLREYDFSSMGIKQENFLRKNPAIRELSIIILWLQSHTPSLVGDETESYQTKWKNTAMAVANSDFDVLASRATDADLIDKLDIDAPLRSNRSIHPADESNDSKVFAQIYKLLLQDRVQDAIDIANNTGNYALALILVGATQEYFDPVLDKEGHHHHHH” the “soluble on expression in E. coli” value was “soluble”. With “MSLSLREVSQLLCQLKVLDQKITKVFEEQVGLSLTRYELLMILKERQPCLQTEIQEHLKIDSGAVTRHLKILEEKQYVTRQRNPENNREVLVHLTEKAQQELQQCTAKQQTVTEIIPSTFTKDDCRQLKELLTKLDQSITTKEV” the “soluble on expression in E. coli” value was “not soluble”. With “MSLSNFYKLLKEKFPRKEDIVTEMINLEAICQLPKGTEYFISDLHGEYDAVDYLLRTGAGSIRAKLLDCFDWQKIVAVDLDDFCILLYYPKEKLAFDKMNLSASAYKTKLWEMIPLQIQVLKYFSSKYTKSKVRKQLSGKFAYIIEELLAEIDRNPEKKSYFDTIIEKLFELDQVEDLIIVLSQTIQVLIIDHLHVVGDIYDRGRYPDRILNRLMAFPNLDIQWGNHDVTWMGAASGSYLCMVNVIRIAARYNNITLIEDRYGINLRRLVDYSRRYYEPLPSFVPILDGEEMTHPDELDLLNMIQQATAILQFKLEAQLIDRRPEFQMHNRQLINQVNYKDLSISIKEVVHQLKDFNSRCIDSKNPSRLTSEEEELLQQLMIAFQTSESLKKHIDFLFEKGSMYLTYNDNLLFHGCIPMHSNGDFKSFKIAGKTYGGRDLLDLFESQIRLAYARPEKHDDLATDIIWYLWCGENSSLFGKNAMTTFERYYVSDKVTHQERKNPYFKLRDKDDICTALLQEFDLPKFGHIVNGHTPVKEKNGEQPIKANGKMLVIDGGFAKGYQKNTGLAGYTLIYNSYGIQLISHLPFTSIEEVLSGTNYIIDTKRLVEEAKDRILVKDTTIGQKLTKEIKDLDHLYRHFQEYDEGHHHHHH” the “soluble on expression in E. coli” value was “soluble”. For “MSLSQHIRKLDSDVSERLKSQACTVSLASAVREIVQNSVDAHATTIDVMIDLPNLSFAVYDDGIGLTRSDLNILATQNYTSKIRKMNDLVTMKTYGYRGDALYSISNVSNLFVCSKKKDYNSAWMRKFPSKSVMLSENTILPIDPFWKICPWSRTKSGTVVIVEDMLYNLPVRRRILKEEPPFKTFNTIKADMLQILVMHPMISLNVQYTDKLRINTEVLFRSKNITEGLTKHQQMSQVLRNVFGAIIPPDMLKKVSLKFNEYQIEGIISKMPVGLKDLQFIYINGRRYADSAFQGYVDSLFQAQDFGEKGMSLLKTKSVGKPYRSHPVFILDVRCPQTIDDLLQDPAKKIVKPSHIRTIEPLIVKTIRSFLTFQGYLTEGHHHHHH”, the “soluble on expression in E. coli” value was “not soluble”. In the case of “MSLSQNSESGNYRKYTSRNPLMGIVVSGFMKDLSETIAPLEEVGSIIDIGCGEGFIINCLNRKDITGVDVSKKALNIAKQKNPGCNFCTGSIYDLSFKKSSFDLVIATEVLEHLENPERALREIKRISKKYCIFSVPNEPYFRTMNFLRGKNLTRLGNDIEHLQNWSTKEFVKLVGRHFNVVEVKRPFPWTMVLCEKEGHHHHHH”, the “soluble on expression in E. coli” value is reported as “not soluble”.

— the DeepSol protein solubility set
